One molecule from patent US20250277003A1 (OSAKA UNIVERSITY, published 2025) can be followed below.

One assay addresses WIV1-CoV spike RBD (WIV1-CoV). The experiment in a line: bead flow cytometry.
The target of a further assay is BtCoV BM48-31 spike RBD (BtCoV BM48-31). The assay can be described thus: bead flow cytometry.

B1: mAb CR3022 (antibody, V domains shown)
VH: QMQLVQSGTEVKKPGESLKISCKGSGYGFITYWIGWVRQMPGKGLEWMGIIYPGDSETRYSPSFQGQVTISADKSINTAYLQWSSLKASDTAIYYCAGGSGISTPMDVWGQGTTVTVSS
VL: not shown
Consider B1, for which the gMFI amounted to 22300 in the assay with WIV1-CoV spike RBD and 72 with BtCoV BM48-31 spike RBD.
